Data from US7422862B2, “Methods for identifying modulators of apoptosis” (The Burnham Institute, priority 2001, dated 2008).

Assays:
[1] = molecular target: T1, Bak (Homo sapiens, UniProt Q16611); assay: Co-immunoprecipitation with Bcl-2 family proteins in HEK293T cells; type: binding; design: expressed in transfected cells; host or cells: HEK293T
T1 sequence (Q16611 1-211): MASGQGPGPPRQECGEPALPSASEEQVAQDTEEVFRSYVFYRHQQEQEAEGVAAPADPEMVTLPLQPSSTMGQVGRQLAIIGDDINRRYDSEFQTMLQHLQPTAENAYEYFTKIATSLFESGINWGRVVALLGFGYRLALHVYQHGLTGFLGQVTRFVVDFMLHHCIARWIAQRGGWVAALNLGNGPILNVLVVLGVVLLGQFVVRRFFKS
Source text: (A) HEK293T cells were transfected with pcDNA3-myc plasmids encoding Bax or other Bcl-2 family proteins with GFP, GFP-HN, or GFP-HN(C8P). Cell lysates were immunoprecipitated with polyclonal anti-GFP antibody. The immunoprecipitates or the lysates were blotted with anti-myc or anti-GFP antibodies, respectively. The slower migrating form of GFP seen in lane 1 (asterisk)represents an alternative form of GFP produced from the wild-type (control) p-EGFP-Cl plasmid (http://clonotech.com). (B) Testes of three-week-old mice were homogenized in lysis buffer (0.1% Triton X-100, 50 mM Tris-HCl, pH7.5, 1 mM EDTA, plus protease inhibitor cocktail). The lysates were immunoprecipitated with control rabbit serum or polyclonal anti-mouse Bax antibody. The immunoprecipitates or the lysates were subjected to electrophoresis in Tris/Tricine gels (16% T, 3% C), electroblotted to PVDF membrane, and immunoblotted with polyclonal anti-HN antibody or monoclonal anti-Bax antibody 6A7 (Trevigen). (C) The affinity (Kd) of Bax/HN interaction was measured by fluorescence polarization assay, using various concentrations of purified recombinant Bax and 40 nM rhodamine-conjugated HN peptide. Control peptide from CD40 is also shown (mean +Std Dev; n=3).
Furthermore, multiple Bcl-2 family proteins were surveyed for interactions with Humanin by coimmunoprecipitation experiments (FIG. 5A). […]

[2] = molecular target: T2, GFP-Bax (Homo sapiens, UniProt Q07812); assay: STS-induced GFP-Bax translocation to mitochondria in Cos7 cells (confocal microscopy); type: cell-based; conditions: peptide transduced with Chariot, 1 μM STS
T2 construct: expressed in transfected cells; host or cells: Cos-7
Description: (A-B) Humanin peptide prevents STS-induced Bax translocation in vivo. Cos-7 cells were first transfected with GFP-Bax plasmids. After 24 hrs, untagged wild-type or C8P mutant Humanin peptides were introduced into cells using ChariotTM reagent, and 2 h later cells were treated with 1 μM STS. After 4 h, the percentage of cells with translocated Bax was determined (mean±SD; n=3) by confocal microscopy (A) and representative photomicrographs (B). (C) Wild-type or C8P mutant Humanin peptides were introduced into Cos7 cells using ChariotTM reagent. Cytosolic (C) and mitochondria-containing (M) fractions were isolated by differential centrifugation 23 and analyzed by immunoblotting using anti-Bax (top), Hsp60 (middle) (mitochondrial marker), or Tubulin (bottom) (cytosol marker) antibodies. (D) HN or mutant control double-strand siRNAs were transfected into SF268 cells. After 48 h, cells were cultured without (Control) or with 0.1 uM STS. After 24 hr, cells were fractionated and analyzed by immunoblotting as above. (E) Isolated mitochondria were mixed with 400 ng Bax protein, with or without preincubating Bax with 100 uM Humanin or Humanin(C8P) peptides for 10 min. After 3 h at 30° C., mitochondria were centrifuged and the resulting pellets (P) and supernatants (S) were analyzed by immunoblotting using anti-Cytochrome c (top), Hsp60 (middle), and Bax (bottom) antibodies. […]

T2 sequence (Q07812 whole entry): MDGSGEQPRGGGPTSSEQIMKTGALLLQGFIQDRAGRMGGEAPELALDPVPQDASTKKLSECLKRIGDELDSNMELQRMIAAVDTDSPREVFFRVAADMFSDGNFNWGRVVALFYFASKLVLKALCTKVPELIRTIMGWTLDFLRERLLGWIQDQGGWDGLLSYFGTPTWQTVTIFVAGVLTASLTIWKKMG

Substance | co-immunoprecipitation with Bak [1] | suppression of GFP-Bax translocation [2]
GFP-HN: Wild-type full-length Humanin fused to Green Fluorescent Protein | did not co-immunoprecipitate | –
Humanin: 24 amino acid polypeptide, cytosolic form of human Humanin (SEQ ID NO:2); used as synthetic peptide or expressed fusion | – | about half
